Results reported in article PMC8203837, “Optogenetically-induced multimerization of the dopamine transporter increases uptake and trafficking to the plasma membrane” (The Journal of Biological Chemistry, 2021).
One block for each molecule: values may come before it.

Columns and labels:
[1] = target: Cry2–mCh–DAT, optogenetic fusion chimera of cryptochrome 2 and DAT with an mCherry fluorescent reporter (Arabidopsis | not stated) (UniProt Q01959); test: cell-surface biotinylation, SDS-PAGE and Western blot; HEK293 cells transfected with Cry2–DAT, kept in the dark (control); sulfo-NHS-SS-biotin at 4 °C, NeutrAvidin beads, 4–15% gradient gel
[2] = target: Cry2–mCh–DAT, optogenetic fusion chimera of cryptochrome 2 and DAT with an mCherry fluorescent reporter (Arabidopsis | not stated) (UniProt Q01959)
[3] = target: the molecule itself; test: cross-linking; as a1, but cells treated with 10 μM DA for 0.5, 2, 10, 30 or 60 min before copper phenanthroline cross-linking
[4] = target: the molecule itself; test: cross-linking; as a1, but cells treated with 10 μM METH for 0.5, 2, 10, 30 or 60 min before copper phenanthroline cross-linking
[5] = target: the molecule itself; test: cross-linking; HEK293 cells stably expressing YFP–DAT, vehicle control; copper phenanthroline (100 μM CuSO4, 400 μM 1,10-phenanthroline) in PBS 10 min at RT, NEM quench, membrane enrichment (Mem-PER Plus), samples not heated, Western blot

stoichiometry N [1]: 2
IDT307 uptake in differentiated SH-SY5Y cells expressing Cry2–DAT, blue light against no blue light [2]: 2.5 fold
Molecule: Cry2–mCh–DAT, optogenetic fusion chimera of cryptochrome 2 and DAT with an mCherry fluorescent reporter (from UniProt Q01959 1-620)

B1: YFP–DAT (dopamine transporter with N-terminal YFP) (natural protein, UniProt Q01959 1-620, looked up)
chain: MSKSKCSVGLMSSVVAPAKEPNAVGPKEVELILVKEQNGVQLTSSTLTNPRQSPVEAQDRETWGKKIDFLLSVIGFAVDLANVWRFPYLCYKNGGGAFLVPYLLFMVIAGMPLFYMELALGQFNREGAAGVWKICPILKGVGFTVILISLYVGFFYNVIIAWALHYLFSSFTTELPWIHCNNSWNSPNCSDAHPGDSSGDSSGLNDTFGTTPAAEYFERGVLHLHQSHGIDDLGPPRWQLTACLVLVIVLLYFSLWKGVKTSGKVVWITATMPYVVLTALLLRGVTLPGAIDGIRAYLSVDFYRLCEASVWIDAATQVCFSLGVGFGVLIAFSSYNKFTNNCYRDAIVTTSINSLTSFSSGFVVFSFLGYMAQKHSVPIGDVAKDGPGLIFIIYPEAIATLPLSSAWAVVFFIMLLTLGIDSAMGGMESVITGLIDEFQLLHRHRELFTLFIVLATFLLSLFCVTNGGIYVFTLLDHFAAGTSILFGVLIEAIGVAWFYGVGQFSDDIQQMTGQRPSLYWRLCWKLVSPCFLLFVVVVSIVTFRPPHYGAYIFPDWANALGWVIATSSMAMVPIYAAYKFCSLPGSFREKLAYAIAPEKDRELVDRGEVRQFTLRHWLKV
notes: dopamine transporter (DAT); also called YFPsynDAT; source: HEK293 cells stably expressing YFP–DAT, in or on cells; not shown: YFP, N-terminal, kept
stoichiometry N [3]: 4
stoichiometry N [4]: 3
stoichiometry N [5]: 2
